Test results published in patent US20230279123A1.

What was measured:
IL-4Rα (on TF-1 cells) = IL-4Rα (on TF-1 cells) (UniProt P24394); assay: cell-based or functional assay
[1] = biological target: IL-4Rα (receptor protein / antigen) (UniProt P24394); assay: competition ELISA: IL-4Rα coated, biotin-IL-4 at EC80 mixed with antibody dilutions, OD450; hIgG is the control, the fitted value may be meaningless

| EC50 of neutralizing IL-4-induced TF-1 cell proliferation (IL-4Rα (on TF-1 cells)) [pM] | EC50 of neutralizing IL-13-induced TF-1 cell proliferation (IL-4Rα (on TF-1 cells)) [pM] | EC50 [1] [pM] | Substance |
| --- | --- | --- | --- |
| 130 | 178 | – | dupilumab (antibody) |
| – | – | 2040 | hIgG (antibody) |
